The labels stand for the following.
B1: Pistol ribozyme (parent)
chain: GGGUCGUUGUUCCAUAAUCGCGUGGAUAUGGCACGCAAGUUUCUACCGGGCACCGUAAAUGUCCGACUGGAGCCGUUCGGGCGGCUAUAAACAGACCUCAGGCCCGAAGCGUGGCGGCACCUGCCGCCGGUGGUAAAAAAGAUCGGAAGAGCACACGUCU

The variants in this data set derive from B1. The experiment in a line: aptazyme ON/OFF ratio, guanine; higher = stronger switching; co-transcriptional cleavage with and without guanine.
GGGUCGACCCUUAAUAAUCGCGUGGAUAUGGCACGCAAGUUUCUACCGGGCACCGUAAAUGUCCGACUGGAGCCGUUCGGGCGGCUAUAAACAGACCUCAGGCCCGAAGCGUGGCGGCACCUGCCGCCGGUGGUAAAAAAGAUCGGAAGAGCACACGUCU [U7A U8C G9C U10C C12U C13A]: the “aptazyme ON/OFF ratio” value turned out to be 1.04.

Turning to GGGUCGGUGGACAAUAAUCGCGUGGAUAUGGCACGCAAGUUUCUACCGGGCACCGUAAAUGUCCGACUGGAGCCGUUCGGGCGGCUAUAAACAGACCUCAGGCCCGAAGCGUGGCGGCACCUGCCGCCGGUGGUAAAAAAGAUCGGAAGAGCACACGUCU [U7G U10G U11A C13A], the “aptazyme ON/OFF ratio” value was determined as 1.11. To GGGUCGCUGUCCCAUAAUCGCGUGGAUAUGGCACGCAAGUUUCUACCGGGCACCGUAAAUGUCCGACUGGAGCCGUUCGGGCGGCUAUAAACAGACCUCAGGCCCGAAGCGUGGCGGCACCUGCCGCCGGUGGUAAAAAAGAUCGGAAGAGCACACGUCU [U7C U11C] belongs 1.16; to GGGUCGCGUCUCUAUAAUCGCGUGGAUAUGGCACGCAAGUUUCUACCGGGCACCGUAAAUGUCCGACUGGAGCCGUUCGGGCGGCUAUAAACAGACCUCAGGCCCGAAGCGUGGCGGCACCUGCCGCCGGUGGUAAAAAAGAUCGGAAGAGCACACGUCU [U7C U8G G9U U10C C13U], 2.24; to GGGUCGCGCUGCUAUAAUCGCGUGGAUAUGGCACGCAAGUUUCUACCGGGCACCGUAAAUGUCCGACUGGAGCCGUUCGGGCGGCUAUAAACAGACCUCAGGCCCGAAGCGUGGCGGCACCUGCCGCCGGUGGUAAAAAAGAUCGGAAGAGCACACGUCU [U7C U8G G9C U11G C13U], 1.15.

As for GGGUCGACGUUCGAUAAUCGCGUGGAUAUGGCACGCAAGUUUCUACCGGGCACCGUAAAUGUCCGACUGGAGCCGUUCGGGCGGCUAUAAACAGACCUCAGGCCCGAAGCGUGGCGGCACCUGCCGCCGGUGGUAAAAAAGAUCGGAAGAGCACACGUCU [U7A U8C C13G], the “aptazyme ON/OFF ratio” value amounted to 1.16.

For the variant GGGUCGUGUGUAUAUAAUCGCGUGGAUAUGGCACGCAAGUUUCUACCGGGCACCGUAAAUGUCCGACUGGAGCCGUUCGGGCGGCUAUAAACAGACCUCAGGCCCGAAGCGUGGCGGCACCUGCCGCCGGUGGUAAAAAAGAUCGGAAGAGCACACGUCU [U8G G9U U10G C12A C13U], the “aptazyme ON/OFF ratio” value was 1.05. For GGGUCGGUGUCGUAUAAUCGCGUGGAUAUGGCACGCAAGUUUCUACCGGGCACCGUAAAUGUCCGACUGGAGCCGUUCGGGCGGCUAUAAACAGACCUCAGGCCCGAAGCGUGGCGGCACCUGCCGCCGGUGGUAAAAAAGAUCGGAAGAGCACACGUCU [U7G U11C C12G C13U] the value was 1.14. For GGGUCGCCUUUGCAUAAUCGCGUGGAUAUGGCACGCAAGUUUCUACCGGGCACCGUAAAUGUCCGACUGGAGCCGUUCGGGCGGCUAUAAACAGACCUCAGGCCCGAAGCGUGGCGGCACCUGCCGCCGGUGGUAAAAAAGAUCGGAAGAGCACACGUCU [U7C U8C G9U C12G] the value was 1.29. For the variant GGGUCGCUCUAUAAUAAUCGCGUGGAUAUGGCACGCAAGUUUCUACCGGGCACCGUAAAUGUCCGACUGGAGCCGUUCGGGCGGCUAUAAACAGACCUCAGGCCCGAAGCGUGGCGGCACCUGCCGCCGGUGGUAAAAAAGAUCGGAAGAGCACACGUCU [U7C G9C U11A C12U C13A], the “aptazyme ON/OFF ratio” value worked out at 1.02. For GGGUCGACUCGACAUAAUCGCGUGGAUAUGGCACGCAAGUUUCUACCGGGCACCGUAAAUGUCCGACUGGAGCCGUUCGGGCGGCUAUAAACAGACCUCAGGCCCGAAGCGUGGCGGCACCUGCCGCCGGUGGUAAAAAAGAUCGGAAGAGCACACGUCU [U7A U8C G9U U10C U11G C12A] the value was 1.04. For GGGUCGUCAUCAAAUAAUCGCGUGGAUAUGGCACGCAAGUUUCUACCGGGCACCGUAAAUGUCCGACUGGAGCCGUUCGGGCGGCUAUAAACAGACCUCAGGCCCGAAGCGUGGCGGCACCUGCCGCCGGUGGUAAAAAAGAUCGGAAGAGCACACGUCU [U8C G9A U11C C12A C13A] the value was 1.15; for GGGUCGUUGGACGAUAAUCGCGUGGAUAUGGCACGCAAGUUUCUACCGGGCACCGUAAAUGUCCGACUGGAGCCGUUCGGGCGGCUAUAAACAGACCUCAGGCCCGAAGCGUGGCGGCACCUGCCGCCGGUGGUAAAAAAGAUCGGAAGAGCACACGUCU [U10G U11A C13G], 1.12; for GGGUCGUUUCGUGAUAAUCGCGUGGAUAUGGCACGCAAGUUUCUACCGGGCACCGUAAAUGUCCGACUGGAGCCGUUCGGGCGGCUAUAAACAGACCUCAGGCCCGAAGCGUGGCGGCACCUGCCGCCGGUGGUAAAAAAGAUCGGAAGAGCACACGUCU [G9U U10C U11G C12U C13G], 1.34. To GGGUCGACUGGAUAUAAUCGCGUGGAUAUGGCACGCAAGUUUCUACCGGGCACCGUAAAUGUCCGACUGGAGCCGUUCGGGCGGCUAUAAACAGACCUCAGGCCCGAAGCGUGGCGGCACCUGCCGCCGGUGGUAAAAAAGAUCGGAAGAGCACACGUCU [U7A U8C G9U U10G U11G C12A C13U] belongs 1.37; to GGGUCGCGUCAGCAUAAUCGCGUGGAUAUGGCACGCAAGUUUCUACCGGGCACCGUAAAUGUCCGACUGGAGCCGUUCGGGCGGCUAUAAACAGACCUCAGGCCCGAAGCGUGGCGGCACCUGCCGCCGGUGGUAAAAAAGAUCGGAAGAGCACACGUCU [U7C U8G G9U U10C U11A C12G], 1.26; to GGGUCGUUACCUAAUAAUCGCGUGGAUAUGGCACGCAAGUUUCUACCGGGCACCGUAAAUGUCCGACUGGAGCCGUUCGGGCGGCUAUAAACAGACCUCAGGCCCGAAGCGUGGCGGCACCUGCCGCCGGUGGUAAAAAAGAUCGGAAGAGCACACGUCU [G9A U10C U11C C12U C13A], 1.03. On to GGGUCGGAGUCAGAUAAUCGCGUGGAUAUGGCACGCAAGUUUCUACCGGGCACCGUAAAUGUCCGACUGGAGCCGUUCGGGCGGCUAUAAACAGACCUCAGGCCCGAAGCGUGGCGGCACCUGCCGCCGGUGGUAAAAAAGAUCGGAAGAGCACACGUCU [U7G U8A U11C C12A C13G], for which the “aptazyme ON/OFF ratio” value worked out at 1.36. For GGGUCGACCAAUAAUAAUCGCGUGGAUAUGGCACGCAAGUUUCUACCGGGCACCGUAAAUGUCCGACUGGAGCCGUUCGGGCGGCUAUAAACAGACCUCAGGCCCGAAGCGUGGCGGCACCUGCCGCCGGUGGUAAAAAAGAUCGGAAGAGCACACGUCU [U7A U8C G9C U10A U11A C12U C13A] the value was 1.09; for GGGUCGAUUUUGGAUAAUCGCGUGGAUAUGGCACGCAAGUUUCUACCGGGCACCGUAAAUGUCCGACUGGAGCCGUUCGGGCGGCUAUAAACAGACCUCAGGCCCGAAGCGUGGCGGCACCUGCCGCCGGUGGUAAAAAAGAUCGGAAGAGCACACGUCU [U7A G9U C12G C13G], 1.3. To GGGUCGGAUCUCAAUAAUCGCGUGGAUAUGGCACGCAAGUUUCUACCGGGCACCGUAAAUGUCCGACUGGAGCCGUUCGGGCGGCUAUAAACAGACCUCAGGCCCGAAGCGUGGCGGCACCUGCCGCCGGUGGUAAAAAAGAUCGGAAGAGCACACGUCU [U7G U8A G9U U10C C13A] belongs 1.11; to GGGUCGGUAUGUCAUAAUCGCGUGGAUAUGGCACGCAAGUUUCUACCGGGCACCGUAAAUGUCCGACUGGAGCCGUUCGGGCGGCUAUAAACAGACCUCAGGCCCGAAGCGUGGCGGCACCUGCCGCCGGUGGUAAAAAAGAUCGGAAGAGCACACGUCU [U7G G9A U11G C12U], 1.3; to GGGUCGAACGAACAUAAUCGCGUGGAUAUGGCACGCAAGUUUCUACCGGGCACCGUAAAUGUCCGACUGGAGCCGUUCGGGCGGCUAUAAACAGACCUCAGGCCCGAAGCGUGGCGGCACCUGCCGCCGGUGGUAAAAAAGAUCGGAAGAGCACACGUCU [U7A U8A G9C U10G U11A C12A], 1.29. To GGGUCGGCUGAGGAUAAUCGCGUGGAUAUGGCACGCAAGUUUCUACCGGGCACCGUAAAUGUCCGACUGGAGCCGUUCGGGCGGCUAUAAACAGACCUCAGGCCCGAAGCGUGGCGGCACCUGCCGCCGGUGGUAAAAAAGAUCGGAAGAGCACACGUCU [U7G U8C G9U U10G U11A C12G C13G] belongs 1.12; to GGGUCGGGAUUAAAUAAUCGCGUGGAUAUGGCACGCAAGUUUCUACCGGGCACCGUAAAUGUCCGACUGGAGCCGUUCGGGCGGCUAUAAACAGACCUCAGGCCCGAAGCGUGGCGGCACCUGCCGCCGGUGGUAAAAAAGAUCGGAAGAGCACACGUCU [U7G U8G G9A C12A C13A], 1.32; to GGGUCGUUUGUUCAUAAUCGCGUGGAUAUGGCACGCAAGUUUCUACCGGGCACCGUAAAUGUCCGACUGGAGCCGUUCGGGCGGCUAUAAACAGACCUCAGGCCCGAAGCGUGGCGGCACCUGCCGCCGGUGGUAAAAAAGAUCGGAAGAGCACACGUCU [G9U U10G C12U], 1.62. With GGGUCGUUCUAAGAUAAUCGCGUGGAUAUGGCACGCAAGUUUCUACCGGGCACCGUAAAUGUCCGACUGGAGCCGUUCGGGCGGCUAUAAACAGACCUCAGGCCCGAAGCGUGGCGGCACCUGCCGCCGGUGGUAAAAAAGAUCGGAAGAGCACACGUCU [G9C U11A C12A C13G], the “aptazyme ON/OFF ratio” value is 1.12.

For the variant GGGUCGCUCGUUCAUAAUCGCGUGGAUAUGGCACGCAAGUUUCUACCGGGCACCGUAAAUGUCCGACUGGAGCCGUUCGGGCGGCUAUAAACAGACCUCAGGCCCGAAGCGUGGCGGCACCUGCCGCCGGUGGUAAAAAAGAUCGGAAGAGCACACGUCU [U7C G9C U10G C12U], the “aptazyme ON/OFF ratio” value is 1.2. For the variant GGGUCGGGCACGCAUAAUCGCGUGGAUAUGGCACGCAAGUUUCUACCGGGCACCGUAAAUGUCCGACUGGAGCCGUUCGGGCGGCUAUAAACAGACCUCAGGCCCGAAGCGUGGCGGCACCUGCCGCCGGUGGUAAAAAAGAUCGGAAGAGCACACGUCU [U7G U8G G9C U10A U11C C12G], the “aptazyme ON/OFF ratio” value came out at 1.11. For GGGUCGAACCGGCAUAAUCGCGUGGAUAUGGCACGCAAGUUUCUACCGGGCACCGUAAAUGUCCGACUGGAGCCGUUCGGGCGGCUAUAAACAGACCUCAGGCCCGAAGCGUGGCGGCACCUGCCGCCGGUGGUAAAAAAGAUCGGAAGAGCACACGUCU [U7A U8A G9C U10C U11G C12G] the value was 1.09; for GGGUCGAUUGAACAUAAUCGCGUGGAUAUGGCACGCAAGUUUCUACCGGGCACCGUAAAUGUCCGACUGGAGCCGUUCGGGCGGCUAUAAACAGACCUCAGGCCCGAAGCGUGGCGGCACCUGCCGCCGGUGGUAAAAAAGAUCGGAAGAGCACACGUCU [U7A G9U U10G U11A C12A], 1.2; for GGGUCGUUUCUGGAUAAUCGCGUGGAUAUGGCACGCAAGUUUCUACCGGGCACCGUAAAUGUCCGACUGGAGCCGUUCGGGCGGCUAUAAACAGACCUCAGGCCCGAAGCGUGGCGGCACCUGCCGCCGGUGGUAAAAAAGAUCGGAAGAGCACACGUCU [G9U U10C C12G C13G], 1.32. For GGGUCGCGGUUGUAUAAUCGCGUGGAUAUGGCACGCAAGUUUCUACCGGGCACCGUAAAUGUCCGACUGGAGCCGUUCGGGCGGCUAUAAACAGACCUCAGGCCCGAAGCGUGGCGGCACCUGCCGCCGGUGGUAAAAAAGAUCGGAAGAGCACACGUCU [U7C U8G C12G C13U] the value was 1.17. To GGGUCGAAAUACCAUAAUCGCGUGGAUAUGGCACGCAAGUUUCUACCGGGCACCGUAAAUGUCCGACUGGAGCCGUUCGGGCGGCUAUAAACAGACCUCAGGCCCGAAGCGUGGCGGCACCUGCCGCCGGUGGUAAAAAAGAUCGGAAGAGCACACGUCU [U7A U8A G9A U11A] belongs 1.16; to GGGUCGCAACCCUAUAAUCGCGUGGAUAUGGCACGCAAGUUUCUACCGGGCACCGUAAAUGUCCGACUGGAGCCGUUCGGGCGGCUAUAAACAGACCUCAGGCCCGAAGCGUGGCGGCACCUGCCGCCGGUGGUAAAAAAGAUCGGAAGAGCACACGUCU [U7C U8A G9A U10C U11C C13U], 0.994; to GGGUCGAGGAUAAAUAAUCGCGUGGAUAUGGCACGCAAGUUUCUACCGGGCACCGUAAAUGUCCGACUGGAGCCGUUCGGGCGGCUAUAAACAGACCUCAGGCCCGAAGCGUGGCGGCACCUGCCGCCGGUGGUAAAAAAGAUCGGAAGAGCACACGUCU [U7A U8G U10A C12A C13A], 1.17.

(Values after the RNAGym collection of RNA variant scans (doi:10.1021/acssynbio.7b00057).)
